# Results reported in the supplement of paper PMC7125110.
# ± gives the standard error. For part of these data: This sample holds only a part of the variants without activity.
# B1: glmS ribozyme (parent)
# chain: AUAAAAGCGCCAGAACUACAGAAAUGUAGUUGACGAGGAGGAGGUUUAUCGAAUUUUCGGCGGAUGCCUCCAAA
# Experiments:
# Details in all cases: with glucosamine-6-phosphate
# glucosamine-6-phosphate [1] = variants of: B1; assay: kcat; higher = faster cleavage; RNA array
# Summary of the method: (§1)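 kcat and KM were obtained from weighted Michaelis–Menten fits across concentrations of kobs values. Those came from one- or two-exponential decay fits to per-tile medians normalised to baseline and to non-cleaving reference variants. The variants were barcoded ribozymes transcribed in situ by E. coli RNA polymerase on sequenced MiSeq chips and tracked through a hybridised Cy3 probe at 37 °C, with 40 μM to 10 mM glucosamine-6-phosphate in HEPES/KCl/Mg(OAc)2 buffer flowed in.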
# glucosamine-6-phosphate [2] = variants of: B1; assay: KM; higher = weaker cofactor use; RNA array
# Summary of the method: as §1
# glucosamine-6-phosphate [3] = variants of: B1; assay: self-cleavage kobs at 160 uM GlcN6P; higher = faster cleavage; RNA array
# Summary of the method: as §1
# glucosamine-6-phosphate [4] = variants of: B1; assay: self-cleavage kobs at 640 uM GlcN6P; higher = faster cleavage; RNA array
# Summary of the method: as §1
# glucosamine-6-phosphate [5] = variants of: B1; assay: self-cleavage kobs at 2500 uM GlcN6P; higher = faster cleavage; RNA array
# Summary of the method: as §1
# glucosamine-6-phosphate [6] = variants of: B1; assay: self-cleavage kobs at 10000 uM GlcN6P; higher = faster cleavage; RNA array
# Summary of the method: as §1
# glucosamine-6-phosphate [7] = variants of: B1; assay: self-cleavage kobs at 40 uM GlcN6P; higher = faster cleavage; RNA array
# Summary of the method: as §1
Variant,kcat (glucosamine-6-phosphate [1]),KM (glucosamine-6-phosphate [2]),self-cleavage kobs at 160 uM GlcN6P (glucosamine-6-phosphate [3]),self-cleavage kobs at 640 uM GlcN6P (glucosamine-6-phosphate [4]),self-cleavage kobs at 2500 uM GlcN6P (glucosamine-6-phosphate [5]),self-cleavage kobs at 10000 uM GlcN6P (glucosamine-6-phosphate [6]),self-cleavage kobs at 40 uM GlcN6P (glucosamine-6-phosphate [7])
A48C,0.000456 ± 3.9e-05 s⁻¹,2180 ± 390 µM,2.69e-05 ± 2.4e-06 s⁻¹,9.91e-05 ± 2.7e-06 s⁻¹,0.000279 ± 6.6e-06 s⁻¹,0.000362 ± 6.6e-06 s⁻¹,–
A53G C58G,0.000112 ± 2.4e-06 s⁻¹,1580 ± 120 µM,–,3.28e-05 ± 1.1e-05 s⁻¹,6.79e-05 ± 1.2e-05 s⁻¹,9.67e-05 ± 9.9e-06 s⁻¹,–
A48G U55C,0.000123 ± 9.6e-06 s⁻¹,458 ± 210 µM,–,7.4e-05 ± 2.3e-05 s⁻¹,0.000125 ± 2.5e-05 s⁻¹,0.000113 ± 1.3e-05 s⁻¹,–
C50G C70U,0.000103 ± 2.1e-05 s⁻¹,–,0.000129 ± 1.5e-05 s⁻¹,–,0.000149 ± 1.4e-05 s⁻¹,7.8e-05 ± 8.6e-06 s⁻¹,8.81e-05 ± 1e-05 s⁻¹
G51U U57G,< 1e-05 s⁻¹,–,–,–,–,< 1e-05 s⁻¹,–
A52U C67G,0.000281 ± 3.9e-05 s⁻¹,2620 ± 740 µM,–,6.34e-05 ± 7.8e-06 s⁻¹,0.000118 ± 1.4e-05 s⁻¹,0.000235 ± 2e-05 s⁻¹,–
A53C,0.0162 ± 0.0036 s⁻¹,2870 ± 790 µM,0.000713 ± 2.4e-05 s⁻¹,0.00273 ± 6.9e-05 s⁻¹,0.00834 ± 0.0003 s⁻¹,0.0126 ± 0.00041 s⁻¹,0.000261 ± 5.6e-06 s⁻¹
A53G,0.0676 ± 0.0095 s⁻¹,2010 ± 330 µM,0.00441 ± 0.0003 s⁻¹,0.015 ± 0.00053 s⁻¹,0.0341 ± 0.0017 s⁻¹,0.0639 ± 0.0029 s⁻¹,0.00137 ± 2.6e-05 s⁻¹
A53U,0.048 ± 0.0058 s⁻¹,2500 ± 350 µM,0.00253 ± 0.00016 s⁻¹,0.0093 ± 0.00029 s⁻¹,0.0221 ± 0.00097 s⁻¹,0.042 ± 0.0018 s⁻¹,0.000782 ± 1.4e-05 s⁻¹
A48G C61A,1.07e-05 ± 3.1e-06 s⁻¹,–,–,–,–,–,–
A48C U56G,0.000214 ± 2.7e-05 s⁻¹,5570 ± 1300 µM,–,–,6.9e-05 ± 1.3e-05 s⁻¹,0.000135 ± 2.8e-05 s⁻¹,–
A48C U56A,0.000146 ± 3.6e-05 s⁻¹,–,–,–,7.8e-05 ± 1.6e-05 s⁻¹,0.000107 ± 1.7e-05 s⁻¹,–
A53C U55A,0.00829 ± 0.0024 s⁻¹,2150 ± 840 µM,0.000453 ± 6.9e-05 s⁻¹,0.00172 ± 0.00021 s⁻¹,0.00411 ± 0.00049 s⁻¹,0.00772 ± 0.00094 s⁻¹,0.000204 ± 1.9e-05 s⁻¹
C50G U56G,4.44e-05 ± 8.9e-06 s⁻¹,–,4.35e-05 ± 1.5e-05 s⁻¹,–,5.17e-05 ± 2.1e-05 s⁻¹,–,–
U49G A64G,0.00241 ± 0.00088 s⁻¹,–,0.00015 ± 4.1e-05 s⁻¹,0.000414 ± 6.7e-05 s⁻¹,0.000922 ± 0.00016 s⁻¹,0.00232 ± 0.0003 s⁻¹,6.16e-05 ± 1e-05 s⁻¹
C50A U56G,< 1e-05 s⁻¹,–,–,–,–,–,–
U49A U65G,< 1e-05 s⁻¹,–,< 1e-05 s⁻¹,–,–,< 1e-05 s⁻¹,–
C50A U69G,5.56e-05 ± 1.8e-05 s⁻¹,–,6.06e-05 ± 1.3e-05 s⁻¹,7.86e-05 ± 1.3e-05 s⁻¹,7.89e-05 ± 1.3e-05 s⁻¹,–,2.65e-05 ± 1.3e-05 s⁻¹
G51U C67G,< 1e-05 s⁻¹,–,–,–,–,–,–

Variant,kcat (glucosamine-6-phosphate [1]),KM (glucosamine-6-phosphate [2]),self-cleavage kobs at 160 uM GlcN6P (glucosamine-6-phosphate [3]),self-cleavage kobs at 640 uM GlcN6P (glucosamine-6-phosphate [4]),self-cleavage kobs at 2500 uM GlcN6P (glucosamine-6-phosphate [5]),self-cleavage kobs at 10000 uM GlcN6P (glucosamine-6-phosphate [6]),self-cleavage kobs at 40 uM GlcN6P (glucosamine-6-phosphate [7])
G51A C71G,2.05e-05 ± 3.5e-06 s⁻¹,–,–,–,–,–,–
G51A C71U,< 1e-05 s⁻¹,–,–,–,–,–,< 1e-05 s⁻¹
A52G C68A,2.06e-05 ± 5.7e-06 s⁻¹,–,–,–,–,–,–
A53C U56A,0.00313 ± 0.00063 s⁻¹,2700 ± 730 µM,0.000205 ± 3.7e-05 s⁻¹,0.000467 ± 9.1e-05 s⁻¹,0.00171 ± 0.00027 s⁻¹,0.00243 ± 0.00038 s⁻¹,4.81e-05 ± 7e-06 s⁻¹
C50U G60U C70U,1.49e-05 ± 6e-06 s⁻¹,–,–,–,–,–,–
A52U A64G C68U,6.78e-05 ± 4.7e-06 s⁻¹,741 ± 230 µM,–,–,5.62e-05 ± 2.2e-05 s⁻¹,6.09e-05 ± 2.2e-05 s⁻¹,–
A52C C70A,1.34e-05 ± 4e-06 s⁻¹,–,–,–,–,–,–
A52C C70G,3.19e-05 ± 1.1e-05 s⁻¹,–,–,3.3e-05 ± 1e-05 s⁻¹,4.57e-05 ± 1.4e-05 s⁻¹,–,–
A48U G51A,1.23e-05 ± 5.9e-06 s⁻¹,–,–,–,–,< 1e-05 s⁻¹,< 1e-05 s⁻¹
A48G U54A,0.000153 ± 2.2e-05 s⁻¹,1650 ± 590 µM,–,3.77e-05 ± 9.3e-06 s⁻¹,0.000115 ± 1.8e-05 s⁻¹,0.000123 ± 1.8e-05 s⁻¹,–
G51A G62U,< 1e-05 s⁻¹,–,< 1e-05 s⁻¹,–,–,–,–
C50U G66A,0.000123 ± 5.1e-05 s⁻¹,–,–,–,–,4.11e-05 ± 9.9e-06 s⁻¹,–
A52U U55A,0.000247 ± 3.7e-05 s⁻¹,2490 ± 990 µM,–,3.67e-05 ± 1.3e-05 s⁻¹,0.000147 ± 1.8e-05 s⁻¹,0.000191 ± 1.8e-05 s⁻¹,–
A52U U55C,0.000619 ± 0.00011 s⁻¹,–,–,–,0.000125 ± 3.2e-05 s⁻¹,0.000288 ± 4.2e-05 s⁻¹,–
A48U C50G C67A C68U,1.99e-05 ± 2.7e-06 s⁻¹,–,–,–,–,–,–
G51U C61A,< 1e-05 s⁻¹,–,< 1e-05 s⁻¹,–,–,< 1e-05 s⁻¹,< 1e-05 s⁻¹
A48U C70U,0.000821 ± 0.00021 s⁻¹,2160 ± 900 µM,5.07e-05 ± 8e-06 s⁻¹,0.000334 ± 5.5e-05 s⁻¹,0.000416 ± 6.2e-05 s⁻¹,0.000671 ± 9.3e-05 s⁻¹,–
C50U C71A,2.1e-05 ± 3.7e-06 s⁻¹,–,–,2.36e-05 ± 1.1e-05 s⁻¹,2.3e-05 ± 8.6e-06 s⁻¹,–,–
C50U U69A,2.06e-05 ± 3.7e-06 s⁻¹,–,–,–,–,–,–
